Paper PMC12732409

Biological target: hyaluronidase from bovine testes (bovine)

Work on “NGT-M002 (pvFP-5; Perna viridis foot protein-5) (natural protein)” yielded a hyaluronidase inhibition rate (enzyme activity on hyaluronic acid, absorbance at 600 nm) at 500 μM sample, 1 U/mL hyaluronidase of 91%.
